In assay [1] the target is mutant human PCNA (surface-exposed cysteines mutated, N107C), unlabeled (human) (UniProt P12004). Briefly: stopped-flow FRET between Cy3-P/T DNA and Cy5-PCNA, trapping experiment with polδ; As a2, with polδ at a ratio of 1:1:1 PCNA:Cy5-PCNA:polδ. The substrates were Cy3-P/T DNA, Cy3-P/T DNA-No Flap and Cy3-P/T DNA-25 bp. The read-out is the overall amplitude of reloading over that of unloading (0.5 = all unlabeled PCNA unloaded, 1.0 = all unlabeled PCNA kept on DNA).

The next assay deals with PCNA (Homo sapiens) (UniProt P12004). The following applies: cited from earlier work.

“wild-type human DNA polymerase δ (polδ) (complex)”: in assay [1], the A (T,Reload)/A (T,Unload) with polδ (Cy3-P/T DNA) amounted to 1, the A (T,Reload)/A (T,Unload) with polδ (Cy3-P/T DNA-25 bp) was found to be 1 and the A (T,Reload)/A (T,Unload) with polδ (Cy3-P/T DNA-No Flap) was found to be 0.99.
Broadly, the Kd is the equilibrium constant for the complex coming apart. Turning to RFC (from UniProt P35251), in the assay with PCNA (Homo sapiens), the Kd was 200 pM.

Values taken from article PMC3614016.
